Measured values taken from the DeepSol protein solubility set.

Experiment: soluble on expression in E. coli; label from the status in PepcDB or PDB records

**Q.** For “MNDSSLKKALSQNSISSAPRRPQKLGSVQSIVRNESDKNVPSPFEEITLSDDDEEAPAKKPVKCATCARDMTLWMNSRRDIHVKVCKAKQSEKEKETTRKSKTLTETIEKDDQVYEKPSSKTHLFEKPFEKPQELPKSWELSKNNVKFARIAEDDEENRKRKRPRSFAVVELAPKKCQCEVLTTLHSRFIDEFHSKSIKNQKKREEGVTEHAFQMKKMIEKISRYEQLSSDMQKVLDDNSEQLPTHIFITCSDGHRVKCQTMILKHRTSLIRLNPKSENIQVEHTKEVVKAWISFVFTANIEWNDDDKDGVRDLASKYGPVGLDLIVKNDKEEDLEKVDDVEDVVEPEAKIDSVVADPVEIEPTASHSDPIELDKSVNYFTSDDPFFGFGKAVENVEDDAEQIMEDKPHESVHSTPQKPTTNVTMDSFDEWSNQPSTNLPTTSNVITPIRNITSKAVFGSHVKILKTNDITPMPAFDSMEEAELKERMKEIGMRPKGKKAMIQILKKAYITLHPEICSGTPTIRPLVRSASLEKVSEQGGKGGRKTIKTKTLSERMIASPKKVSPKKQGVKNAISDETSKNVSNVSDDLDEDNDGDKTLNISNDEREVGKIWGDDVGDDEEDDDDMSASSTSGKHDLSALKLAFLTWLRSDQNTVLHEHILSLQPVSLEEMLIRLEKADGPLGRIGKGKLVKLLEMLKITYQLPQKTGRARGGYKRRL”, which “soluble on expression in E. coli” value is on record?
**A.** not soluble

**Q.** With “VANITFSSPVMAKDVTVYAVAGDRGTILAVAKSHSIPIPFDCQDGECGSCLVQVEHFNPKAKAAVALTEKEKEVLRQLGKITKEEIVDAEVNDIPPRYRLACQCFVRNEDILVKFEGDKTKPQRLAVTPAAAHYKGGMEINTPQEFFSYAAKVEEDAALHYDSLAKAMADAGNAPVAKLFAQLAEFSRLHLAEVKSRAGSIDLSKSVPPDYAWPDHATPERAAVWASDTTLTRLGALKAALQGERRGYEFYRAVEATTKSSEVAAAAKEFVNEEAEHVRILEAWITQEEWSLKHAAKAAENA” as the sequence, how does the “soluble on expression in E. coli” value read?
**A.** not soluble

**Q.** Which “soluble on expression in E. coli” value does the source give for “TKDFAFDLNVNMAHNVSKVKELAPEENVNYMFFNGDGNFPVKVGTRAGHKLGEIYATSLYKRNENGDIIVNENGLPMTVTNESEYVNKPIGNIQPKLTMSVSPTFTYKGITLSALFDMKFGGDIFSYSEMLATGNGLAKRTLNRGEENNYMMVFPGVTESGEVNTKQVSASEYYGALQAEDFIYDASFIKLKELSIGYSFPSSMLKKTPVNSLNVSFVARNLCYLMKHTPGTSPEGGYDTTMFSQAIDYASLPFTRTFGISINLGF” here?
**A.** not soluble

**Q.** For “METRRAERINKLIQALKRSDKIHLKDAANLLRVSEMTIRRDLSAEPTSVILLGGYVVMDPKSNNANNYFVSDQQAKQVEEKRRIGQLAAQLIIENDTVFFDCGTTIPWIIDEIDEELAFTAICYSLNTFLALQDKPNCKVILCGGEFKPNNCIFTPLSQQSELDNICPNKAFISAAGVSIEYGATCFNFDEILLKHRAMAKSQYKILVADHSKFGKIKPASIGTLAQFDALVTDRPPVAEFYLFFSQHSVKIYC”, which “soluble on expression in E. coli” value is on record?
**A.** not soluble

**Q.** With “MSQIAGYFSSDSGVYPNPVKDVLNIKHEGDFGVRIFDFSGRLVLSMENTRMIGVKVLTAGAYVIKLMTQGSTPAERFIKL” as the sequence, how does the “soluble on expression in E. coli” value read?
**A.** not soluble

**Q.** With “MVEFRNEVSHQWTRRHTLRKFRAGMLSRDSLCDADFVLVTASKFHGSRVPTPCPVCDSDQLRHVLWVYGESLGRASGSARTMEEIVTFAQSGKEFTVHTVEVCPDCRWNHLLNSVTAMPQ” as the sequence, how does the “soluble on expression in E. coli” value read?
**A.** not soluble

**Q.** With “MSLNYLMKEKYIGLHKFELDTPCLVIDYEKLKHNLEIMQQHGFTWGIGIRPHCKTHKCTQIARLQLEYGAIGISAAKLSEAAALVSKRITNVLITSLIVSEAKYSRLFNCLKSAPDLMLVVDDKDNIRMLNKLGKSLNQPVHVLLDIDSGIGRTGINPEAALEYGHFINGMNWLKLKGIQCYAGHLQHIQNYEERKAFSLQVMEMASRIVKSFRDANLPCEILTGTGTGTFDIDVEASEVTEIQPGSYAVMDVEYGSIGSKNNPSSFQLFKNSMTLLTSVISSNRREHATVDAGTKSIYVDPHHKPHIISHPGLVYDWGGFGDEHGKVFSCEGGSHFLQNGDVLEIIVPHCDPTINLYDKFYITENNVVVDIWDIDMRGKSEGHHHHHH” as the sequence, how does the “soluble on expression in E. coli” value read?
**A.** soluble

**Q.** With “AGDIAIIGLAGRYPKAANIHEFWNNLKEGKDCVSEIPESRWDWQRLEGITSPSGKDISKWGGFIDDPDCFDPQFFRITPREAETMDPQERLFLETCWETIEDAGYTPKTLAKPKGRNKRQHVGVFAGVMHKDYTLVGAEEASAENVFPLSLNYAQIANRVSYFCNFHGPSMAVDTVCSSSLTAVHLALESIRHGECDVALAGGVNLSLHPNKYMTYGVWDMFSTDGHCRTFGKDGDGYVPAEGIGAVLLKPLRQAEEDGDRIYAVIKGSAVNHVGTVSGISVPSPVSQADLIETCLEKTGIDPRTISYVEAHGTGTSLGDPIEIQGLVKAFRQYTQDRQFCSIGSVKSNIGHAESAAGISGLSKVALQLHHQKLVPSLHSEELNPYVDFEKSPFYVQHETETWKQPVIKENGEDVPYPRRAGISSFGATGSNAHIILEEH” as the sequence, how does the “soluble on expression in E. coli” value read?
**A.** soluble

**Q.** Which “soluble on expression in E. coli” value does the source give for “MSLNDSFNPNENNPAEPSMELVVNGSGINVRSDAGIEHRVVRKASNGDRYKVLAVKNGWYKVGNGEWIFYDPSWIKINYNVPKEEVQKPKEEVQKPKDDITGGWFEGHIRKLNSLGIMQGEGNGVFAPYRNVTRAEFAKLISNALKLPEGNKSFVDINEAHPSLHDGIKRCASAGIINGRGEGIFDPNSPITREEVSIMIDKALRYKGITGELVALPFTDKHLITYKESVQRLYSLKVVNGIGNNEFDPRGTATRGQAAAFIVKMLDSMQKEGHHHHHH” here?
**A.** soluble

**Q.** For “MAHHHHHHMASSEEEKRVAYCKQHNVHHLFELLATKLLLDRPENPFEYLREMLSKVEESEKSKQSYDPTVLSPPVNGAVEPLKKITLGTFGLDNAGKTTLISALGGQIEVNTTPTVGFTPTKFQTEKYDICIFDLGGAANFRGIWVHYFHDCHGLMFVIDSAADDAVVRESLNVLRDLSQHRYIKGKPILVLANKKDLENARGTKVIPNGFLDKLFGRNTAYRVVASCGIEEDPALEEGVEWLLSVVDKLHDTLEARVNCDTEEVKMEAKRKAAERLAALKTAS”, which “soluble on expression in E. coli” value is on record?
**A.** not soluble

**Q.** For “MVRELKRFGARFTFLFSARRMCPLMTAEGSLPSVEDFWGNCRIARAKGVCSYYEELSRLDEAEVAQYVRSRPVISAYRLAWDIAKFKGACPFFALKGLVEDSQFIVATYPYLFKEDIFRSFLEPYDYGDFVAVVDEAHSLLNIHSLHEYRVSQRDLDLALKEVREYASSARDFIAWLESVLKKASRLKVSRITLLDKQPFLEGLDDLSVVEDVVETIRARKAEEALSLSGPSGIGRVKTMASRIYSWLSVLVRDDSYLFAEKDEGGVLWLIATPLDPSRVVKEPLEKVKAAVLLSGTMPSTKLYMEVLGVSRSFKFVDVNLMYGARGFGRFFTIVAADVTTAYRSRGDSMYRLIASRIAMADRLLPGLKLAVYPSYEVMYRVVERLPADVETIVETRGISLDEVEAKILARDPGEKIIINAVAGGKLVEGVEFVDYEGRNLLSTVIVVGVPFPQPDDYTRKHLEVMASRIGVSNARKLVYLVNPMIKVRQALGRGIRGPEDRALYILMDYRYLRRDLKEVLGMPYHRVVKGAEDFEEAVKAARSRVFGG”, which “soluble on expression in E. coli” value is on record?
**A.** soluble

**Q.** Which “soluble on expression in E. coli” value does the source give for “MTVSTPEQHEQRASHDASEGKHNVCQGRLAALADAAVSEKLGALPGWQLLDMRLSRAFQCTNFDQSIDFMNRVASIANDINHHPDIAVLDKRSVRVTAWTRKLGYLTDIDFDLAASVEAMYATEFADRPAR” here?
**A.** soluble

**Q.** Which “soluble on expression in E. coli” value does the source give for “MKYVLIQATDNGILRRAECGGAVTALFKYLLDKKLVDGVLALKRGEDVYDGIPTFITNSNELVETAGSLHCAPTNFGKLIAKYLADKKIAVPAKPCDAMAIRELAKLNQINLDNVYMIGLNCGGTISPITAMKMIELFYEVNPLDVVKEEIDKGKFIIELKNGEHKAVKIEELEEKGFGRRKNCQRCEIMIPRMADLACGNWGAEKGWTFVEICSERGRKLVEDAEKDGYIKIKQPSEKAIQVREKIESIMIKLAKKFQKKHLEEEYPSLEKWKKYWNRCIKCYGCRDNCPLCFCVECSLEKDYIEEKGKIPPNPLIFQGIRLSHISQSCINCGQCEDACPMDIPLAYIFHRMQLKIRDTLGYIPGVDNSLPPLFNIERLEHHHHHH” here?
**A.** soluble

**Q.** For “MGSDKIHHHHHHMTRRGMEFYEKAQELVKGFDIFQNQYANPEEEKDEFSIASQHYDFLPPTITAFSERYPDYKNFRIFESTTVQILDEVAQGHSEIGIIYLNNQNKKGIMQRVEKLGLEIIELISFHTHIYLREGHPLAQKEELVMEDLADLPTVRFTQEKDEYLYYSENFVDTSASSQMFNVTDRATLNGILERTDAYATGSGFLDSDSVNGITVIRLKDNLDNRMVYVKREEVELSQAGTLFVEVMQEYFNQKRKS”, which “soluble on expression in E. coli” value is on record?
**A.** not soluble

**Q.** Which “soluble on expression in E. coli” value does the source give for “MYVTIVYASVKTDKTEAFKEATRMNHEQSIREPGNMRFDILQSADDPTRFVLYEAYKTRKDAAAHKETAHYLTWRDTVADWMAEPRKGVIYGGLYPTGDD” here?
**A.** soluble

**Q.** For “MGHHHHHHSHMNGEAICSALPTIPYHKLADLRYLSRGASGTVSSARHADWRVQVAVKHLHIHTPLLDSERKDVLREAEILHKARFSYILPILGICNEPEFLGIVTEYMPNGSLNELLHRKTEYPDVAWPLRFRILHEIALGVNYLHNMTPPLLHHDLKTQNILLDNEFHVKIADFGLSKWRMMSLSQS”, which “soluble on expression in E. coli” value is on record?
**A.** not soluble

**Q.** Which “soluble on expression in E. coli” value does the source give for “MKTQFIAGHARLPAGMAAKSLYDTLTITAEIDKKYGVIVEASCTLATEHGRDYVARLLRGHSLRDGIDGLLAELDEGYLGKAHSALCAALKDLYKQYCKMEEKEP” here?
**A.** not soluble

**Q.** For “MLTETEGRAAVKLARKTIEIFLSKGKSPRPDASGVELSPVFEEYRGVFVTLTEGGLLRGCIGHPYPDSTLKEAILDSAISAATRDPRFPTVEQDEMKNILVEVTILTQPEKINASPKELPDKVEIGKHGLIVKQGYCQGLLLPQVAPENDMDSIDFLSHTCMKAGLSPDAWVKGAEVYCFEGQIFKEKEPDGEVIEEKFLEHHHHHH”, which “soluble on expression in E. coli” value is on record?
**A.** soluble

**Q.** Which “soluble on expression in E. coli” value does the source give for “MAEVKKSNAPEFKGAETLYLIDIPQPDGKTTKTVRFFNQTSGSRSIEAGEIELKTKDKSGSDYGDVTQSASIEGICTEGDEGLDYVEEAILNKVLVRIHEVNLRSATASEFKVKSGTYMLNSLELSHENEEYSKYSIGLKLNGKISKGTLNKVPEGAPSGDVATPGTE” here?
**A.** not soluble

**Q.** With “MSKPMKILLANPRGFCAGVDRAISIVERALELYQPPIYVRHEVVHNRFVVEGLKQRGARFVEELNEVPDDNIVIFSAHGVSQAVRQEAKERSLTVFDATCPLVTKVHMEVARASRKHMEVVLIGHAGHPEVEGTMGQYASDTGGMYLVEKPEDVVSLQAKVKDPSNLHYVSQTTLSVDETADVIDELRRVFPKIQGPRKDDICYATQNRQDAVRILAEQVDVMVVVGSKNSSNSTRLKELAEKLGTPGYLIDCPQDIDPEWFVDAQLIGVTAGASAPEELVNQILDRIKELGATSVEEVLGREENMFFEVPKELQIKQVD” as the sequence, how does the “soluble on expression in E. coli” value read?
**A.** soluble

**Q.** Which “soluble on expression in E. coli” value does the source give for “RFNVFDFRGATLIADYGHNPDAIQALVRAIDTMPARRRSVVISGAGDRRDEDLRQQTEILGGAFDDVILYQDQCQRGRADGEVVALLRQGLQQAPRTRHIDEIQGEFVAIDAALERLAPGDLCLILVDQ” here?
**A.** not soluble

**Q.** With “HMRQRHILFANVQGHGHVYPSLGLVSELARRGHRITYVTTPLFADEVKAAGAEVVLYKSEFDTFHVPEVVKQEDAETQLHLVYVRENVAILRAAEEALGDNPPDLVVYDVFPFIAGRLLAARWDRPAVRLTGGFAANEHYSLFKELWKSNGQRHPADVEAVHSVLVDLLGKYGVDTPVKEYWDEIEGLTIVFLPKSFQPFAETFDERFAFVGPTLTGRDGQPGWQPPRPDAPVLLVSLGNQFNEHPEFFRACAQAFADTPWHVVMAIGGFLDPAVLGPLPPNVEAHQWIPFHSVLAHARACLTHGTTGAVLEAFAAGVPLVLVPHFATEAAPSAERVIELGLGSVLRPDQLEPASIREAVERLAADSAVRERVRRMQRDILSSGGPARAADEVEAYLGRVAP” as the sequence, how does the “soluble on expression in E. coli” value read?
**A.** soluble
